# Test results as given in patent US12691186B2, “B7-H3 miniproteins, conjugates, and uses thereof” (priority 2023, dated 2026).
# Primed or numbered codes have the meaning given here. [ ]: non-standard residue; d: D form. The star is where a group is joined. Biotin = O=C1N[C@H]2[C@H](CS[C@H]2CCCCC(=O)*)N1; Lys(Me2) = CN(C)CCCC[C@H](N)C(=O)O; PEG4′ = not defined here
# Columns and labels:
# [1] = test system: >6,500 different human proteins; experiment: Off-target binding, cell microarray platform (Retrogenix Assay) in HEK293 cells; conditions: biotin-labeled molecules
# Protocol: To evaluate potential off-target binding, eight biotin-labeled molecules were tested in a cell microarray platform (Charles River Lab, Retrogenix Assay) having >6,500 different human proteins spanning diverse functions and subcellular locations.
# Initially, two pools of molecules were tested. Pool #1 consisted of C298, C300, C302, C304, and pool #2 consisted of C306, C308, C310, and C312 at 2 μg/mL for each molecule. To perform this assay, HEK293 cells were plated on a dish and localized spots of cells were transiently over-expressed with a cDNA encoding for one of the >6,500 targets. Included in this library were two isoforms of CD276 (B7-H3) and B7-H3 related proteins (B7-1, B7-2, B7-H1/PD-L1, and B7-H2). The molecule pools were incubated on the fixed, over-expressing cell microarrays (n=2 per protein), and binding was visualized using Alexa Fluor 647 streptavidin fluorescence. All transfection efficiencies exceeded minimum thresholds for the microarray expression targets. Preliminary interactions identified from pooled results were re-spotted in duplicates, and each of the eight compounds were tested individually (n=2) at 2 μg/mL and/or in dose response against these targets as described above to validate the interactions.
# All positive control interactions were strong and passed quality control. Specific interactions observed (median SNR≥1) confirmed on-target B7-H3 binding in two different isoforms for each of the eight test molecules. These interactions with the primary target occurred after fixation and in live cells (absence of fixation). No significant additional interactions were confirmed for any test molecules outside of B7-H3, indicating high specificity for the primary target (data not shown).
# [2] = test system: opossum kidney proximal tubule cells; experiment: OK-PTC uptake assay of miniprotein conjugates in presence of scaffold A decoys; type: cell-based; conditions: compound 20 μM; for % Uptake reduction in the presence of a decoy C118: 20-fold molar excess of decoy C118; for % Uptake reduction in the presence of a decoy C119: 20-fold molar excess of decoy C119
# Protocol: This Example describes reduction of uptake of exemplary truncated and constrained B7-H3 miniprotein conjugates (C272, C308, C234, C394, C250, and C228) when combined with exemplary scaffold A decoys (C118, C119 and C120) as compared to no decoy. Uptake of compounds was evaluated in opossum kidney proximal tubule cells (as described in Example 5). Here, cells were treated with a compound in the presence or absence of a 20-fold molar excess of exemplary scaffold A decoys, C118, C119, and C120. Results depicting uptake of six exemplary B7-H3-targeting compounds, C272, C308, C234, C394, C250, and C228, in OK-PTC cells in the presence and absence of exemplary decoys C118, C119, and C120 (scaffold A decoys) are shown in Table 13. The B7-H3-targeting compounds were used at 20 μM and the decoys used at a 20-fold (with C272, C308, C234, C394, and C250) and 10-fold (with C228) molar excess.
# [3] = In vitro metabolic stability, kidney brush border membrane preparations (KBBM); type: in vitro ADME; set-up: unit not given here; conditions: mouse kidney brush border membrane preparation, 37° C.
# Protocol: (§1) Exemplary miniprotein conjugates were spiked into biological matrices at initial concentration between 1-2 μM. Tested matrices were varied by species (mouse, rat, human) and type (plasma, serum, and kidney brush border membrane preparations tested each from 0.625-100 μg/mL protein content). Tested conditions were incubated with TAs at 37° C. for 4 hours. At collection points of 0, 15, 30, 60, 120, 240 minutes, 50 μL of each condition were quenched by organic solvent (methanol or acetonitrile) or the addition of 4% phosphoric acid solution. Fractions of each quenched timepoint were subsequently assayed for parent TA concentration by high resolution LC-MS. Percent-parent-remaining-time plots were constructed from the ratio of each given time collection to the time-zero parent TA. Percent-parent-remaining in mouse serum and plasma for exemplary miniproteins are recorded in Table 8.
# [4] = In vitro metabolic stability, plasma; type: in vitro ADME; set-up: unit not given here; conditions: 37° C.
# Protocol: as §1
molecule,measurement,setting,value
CC[C@H](C)[C@@H]1NC(=O)[C@H](Cc2ccccc2)NC(=O)[C@H](C)NC(=O)[C@H](CCCCN(C)C)NC(=O)[C@H]([C@@H](C)CC)NC(=O)[C@H](CCC(N)=O)NC(=O)[C@H](C)NC(=O)[C@H](Cc2ccc(O)cc2)NC(=O)[C@H]([C@@H](C)O)NC(=O)[C@H](CC(C)C)NC(=O)[C@@H]2CSSC[C@@H](C(=O)N[C@@H](CO)C(N)=O)NC(=O)[C@H](CC(C)C)NC(=O)[C@H](CCC(=O)O)NC(=O)[C@H](CCCCN)NC(=O)[C@H](C)NC(=O)[C@H](CCC(=O)O)NC(=O)[C@H](CO)NC(=O)[C@H](CC(C)C)NC(=O)[C@H]([C@@H](C)CC)NC(=O)[C@H](CCC(=O)O)NC(=O)[C@H](C)NC(=O)[C@H](CO)NC(=O)[C@H](CCC(N)=O)NC(=O)[C@H](CSSC[C@H](NC(=O)CCOCCOCCOCCOCCNC(=O)CCCC[C@@H]3SC[C@@H]4NC(=O)N[C@@H]43)C(=O)N[C@@H](C)C(=O)N[C@@H](CCCNC(=N)N)C(=O)N[C@@H](CCC(=O)O)C(=O)N[C@@H](CCCCN)C(=O)N[C@@H]([C@@H](C)CC)C(=O)N[C@@H](C)C(=O)N[C@@H](C)C(=O)N[C@@H](CC(C)C)C(=O)N[C@@H](CO)C(=O)N[C@@H](CCC(=O)O)C(=O)N[C@@H]([C@@H](C)CC)C(=O)N[C@@H]([C@@H](C)CC)C(=O)N[C@@H](Cc3c[nH]c4ccccc34)C(=O)N[C@@H](CC(C)C)C(=O)N3CCC[C@H]3C(=O)N2)NC(=O)[C@@H]2CCCN2C(=O)[C@H](CC(=O)O)NC(=O)[C@H](CC(=O)O)NC(=O)[C@H](CC(N)=O)NC(=O)[C@H](CC(C)C)NC(=O)[C@H](C)NC(=O)[C@H](C)NC1=O [Compound C300],background binding to untransfected HEK293 cells,[1],low-background binding
"C250 ({Biotin-PEG4′}-CAKEKIAALSEIIWLPCLTYAQI[Lys(Me2)]AFIAALNDDPCQSSEILSEAKELNDSQCP-NH2; disulfide (positions not given here); also: disulfide bonds between pairs of the four Cys, pairing not given here) [Compound C250]",% Uptake reduction in the presence of a decoy C118,[2],90.2%
same,% Uptake reduction in the presence of a decoy C119,[2],97.4%
"C272 (CAREKIAALSEIIWLPCLTYAQIXAFIAALNDDPCQSAEILSEAKELCS; Biotin-PEG4 N-term, dimethyllysine, C-amide; SITE 24 dimethyllysine) [Compound C272]",% Uptake reduction in the presence of a decoy C118,[2],95.6%
same,% Uptake reduction in the presence of a decoy C119,[2],98.8%
same,% Uptake reduction in the presence of a decoy C120,[2]; 20-fold molar excess of decoy C120,97.5%
"C303 (CAREKIAALSEIIWLPCLTYAQIXAFIAALNDDPCQSANILSEAXELCS; DOTA-PEG4 N-term, methyllysines, C-amide; SITE 24 monomethyllysine; SITE 45 monomethyllysine) [Compound C303]",In vitro Stability (mouse) - KBBM,[3],>12
same,In vitro Stability (mouse) - Plasma,[4],>12
"C305 (CAXEKIAALSEIIWLPCLTYAQIXAFIAALNDDPCQSSEILSEAXELCS; DOTA-PEG4 N-term, methylated lysines, C-amide; SITE 3 trimethyllysine; SITE 24 monomethyllysine; SITE 45 monomethyllysine) [Compound C305]",In vitro Stability (mouse) - KBBM,[3],>12
same,In vitro Stability (mouse) - Plasma,[4],>12
"C307 (CAXEKIAALSEIIWLPCLTYAQIXAFIXALNDDPCQSSEILSEAXELCS; DOTA-PEG4 N-term, methylated lysines, C-amide; SITE 3 trimethyllysine; SITE 24 monomethyllysine; SITE 28 monomethyllysine; SITE 45 monomethyllysine) [Compound C307]",In vitro Stability (mouse) - KBBM,[3],>12
same,In vitro Stability (mouse) - Plasma,[4],>12
"C311 (CAXEKIAALSEIIWLPCLNYAQIXAFIAALNDDPCQSSEILSEAXELCS; DOTA-PEG4 N-term, methylated lysines, C-amide; SITE 3 trimethyllysine; SITE 24 monomethyllysine; SITE 45 monomethyllysine) [Compound C311]",In vitro Stability (mouse) - KBBM,[3],>12
same,In vitro Stability (mouse) - Plasma,[4],>12
"C313 (CAXEKIAALSEIIWLPCLTYAQIXAFIAALNDDPCNSSEILSEAXELCS; DOTA-PEG4 N-term, methylated lysines, C-amide; SITE 3 trimethyllysine; SITE 24 monomethyllysine; SITE 45 monomethyllysine) [Compound C313]",In vitro Stability (mouse) - KBBM,[3],>12
same,In vitro Stability (mouse) - Plasma,[4],>12
"C317 (CAXEKIAALSEIIWLPCLTYAQIXAFIARLNDDPCQSAEILSEAXELCS; DOTA-PEG4 N-term, methylarginine, methyllysines, C-amide; SITE 3 Rme; SITE 24 monomethyllysine; SITE 45 monomethyllysine) [Compound C317]",In vitro Stability (mouse) - Plasma,[4],>12
"C319 (CAXEKIAALSEIIWLPCLTYAQIXAFIAXLNXDPCQSSEILSEAXELCS; DOTA-PEG4 N-term, methyllysines, citrulline, C-amide; SITE 3 trimethyllysine; SITE 24 dimethyllysine; SITE 29 monomethyllysine; SITE 32 citrulline; SITE 45 monomethyllysine) [Compound C319]",In vitro Stability (mouse) - KBBM,[3],>12
same,In vitro Stability (mouse) - Plasma,[4],>12
"C349 (CAREKIAALSEIIWLPCLTYAQIXAFIAALNDDPCQSAEILSEAQELCS; DOTA-PEG4, methyl-Lys, C-terminal amide; SITE 24 monomethyllysine) [Compound C349]",In vitro Stability (mouse) - KBBM,[3],>12
same,In vitro Stability (mouse) - Plasma,[4],>12
"C354 (CAREKIAALSEIIWLPCLTYAQIXAFIAALNDDPCQSSEILSEAXELCS; not fully specified; DOTA-PEG4, methyl-Lys, C-terminal amide; SITE 24 monomethyllysine; SITE 45 monomethyllysine) [Compound C354]",In vitro Stability (mouse) - KBBM,[3],>12
same,In vitro Stability (mouse) - Plasma,[4],>12
"C467 (CAREKINALGEIIWLPCLTYDQIXAFIAALNDDPCQSSEILSEAXELCS; not fully specified; DOTA-PEG4, methyl-Lys, C-terminal amide; SITE 24 monomethyllysine; SITE 45 monomethyllysine) [Compound C467]",In vitro Stability (mouse) - KBBM,[3],>12
same,In vitro Stability (mouse) - Plasma,[4],>12
"C493 (CAREKINALGEIIWLPCLTYDQIXAFIAXLNDDPCQSSEILSEAXELCS; not fully specified; DOTA-PEG4, methyl-Lys, C-terminal amide; SITE 24 monomethyllysine; SITE 29 monomethyllysine; SITE 45 monomethyllysine) [Compound C493]",In vitro Stability (mouse) - KBBM,[3],>12
same,In vitro Stability (mouse) - Plasma,[4],>12
